# System: Escherichia coli TOP10
# Assay: shrunken log2 fold change of peptide-encoding DNA abundance (4.5 h post-induction vs induction); higher = less antimicrobial activity (less host growth inhibition)
# Settings: time post-induction: 4.5 h; library: site-saturation at positions 5, 18, 19, 20
# 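Also: peptides expressed intracellularly from a pBAD plasmid library in pooled LB shake-flask culture, induced with 0.3% L-arabinose, DNA abundance read by NGS, three biological replicates, DESeq2 with apeglm shrinkage.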
row,Sequence,shrunken log2 fold change
1,RRIRARPPRLPRPRPRPKVSPRP,0.669
2,RRIRKRPPRLPRPRPRPVEEPRP,0.695
3,RRIRKRPPRLPRPRPRPYMAPRP,-0.0833
4,RRIRKRPPRLPRPRPRPFRAPRP,0.201
5,RRIRLRPPRLPRPRPRPVWLPRP,0.242
6,RRIRHRPPRLPRPRPRPHDNPRP,-0.483
7,RRIRWRPPRLPRPRPRPGSRPRP,0.244
8,RRIRSRPPRLPRPRPRPKWKPRP,-0.0184
9,RRIRYRPPRLPRPRPRPIAHPRP,-0.901
10,RRIRIRPPRLPRPRPRPQCTPRP,-0.769
11,RRIRNRPPRLPRPRPRPICHPRP,-0.1
12,RRIRLRPPRLPRPRPRPICPPRP,0.00212
13,RRIRPRPPRLPRPRPRPAQMPRP,0.181
14,RRIRMRPPRLPRPRPRPEMGPRP,2.44
15,RRIRCRPPRLPRPRPRPQRAPRP,-0.012
16,RRIRWRPPRLPRPRPRPMIKPRP,-0.353
17,RRIRYRPPRLPRPRPRPCNNPRP,-0.331
18,RRIRVRPPRLPRPRPRPKKHPRP,-0.0486
19,RRIRHRPPRLPRPRPRPIFHPRP,-0.155
20,RRIRKRPPRLPRPRPRPAKQPRP,0.0123
21,RRIRQRPPRLPRPRPRPWNTPRP,-0.169

row,Sequence,shrunken log2 fold change
1,RRIRRRPPRLPRPRPRPRTVPRP,0.693
2,RRIRKRPPRLPRPRPRPQARPRP,-0.0213
3,RRIRVRPPRLPRPRPRPQKPPRP,0.116
4,RRIRVRPPRLPRPRPRPMACPRP,-0.147
5,RRIRSRPPRLPRPRPRPHGQPRP,0.24
6,RRIRMRPPRLPRPRPRPVHRPRP,0.872
7,RRIRDRPPRLPRPRPRPDVCPRP,0.833
8,RRIRYRPPRLPRPRPRPQWGPRP,0.122
9,RRIRFRPPRLPRPRPRPSDHPRP,-0.221
10,RRIRGRPPRLPRPRPRPTPHPRP,0.906
11,RRIRERPPRLPRPRPRPDDHPRP,-0.284
12,RRIRNRPPRLPRPRPRPWLMPRP,-0.13
13,RRIRRRPPRLPRPRPRPSHVPRP,0.151
14,RRIRSRPPRLPRPRPRPVVDPRP,0.125
15,RRIRPRPPRLPRPRPRPVRFPRP,0.28
16,RRIRKRPPRLPRPRPRPRDFPRP,0.188
17,RRIRQRPPRLPRPRPRPHEMPRP,-0.111
18,RRIRPRPPRLPRPRPRPDNCPRP,-0.197
19,RRIRRRPPRLPRPRPRPIKYPRP,0.0338
20,RRIRLRPPRLPRPRPRPHNFPRP,-0.115
21,RRIRHRPPRLPRPRPRPQIKPRP,-0.889

row,Sequence,shrunken log2 fold change
1,RRIRHRPPRLPRPRPRPKSVPRP,-0.0127
2,RRIRTRPPRLPRPRPRPGSTPRP,0.857
3,RRIRTRPPRLPRPRPRPESYPRP,-0.0242
4,RRIRERPPRLPRPRPRPAQWPRP,0.184
5,RRIRYRPPRLPRPRPRPHAKPRP,-0.0339
6,RRIRMRPPRLPRPRPRPVHFPRP,0.602
7,RRIRYRPPRLPRPRPRPMDRPRP,-0.0498
8,RRIRWRPPRLPRPRPRPANWPRP,0.273
9,RRIRYRPPRLPRPRPRPMRDPRP,-0.151
10,RRIRDRPPRLPRPRPRPRIPPRP,-0.108
11,RRIRIRPPRLPRPRPRPSWHPRP,-0.707
12,RRIRWRPPRLPRPRPRPIISPRP,-0.14
13,RRIRYRPPRLPRPRPRPDYCPRP,-0.00674
14,RRIRLRPPRLPRPRPRPGNVPRP,0.0636
15,RRIRMRPPRLPRPRPRPIENPRP,-0.142
16,RRIRNRPPRLPRPRPRPCPIPRP,-0.223
17,RRIRYRPPRLPRPRPRPCPHPRP,-0.0263
18,RRIRMRPPRLPRPRPRPHDTPRP,0.048
19,RRIRYRPPRLPRPRPRPCRNPRP,-0.072
20,RRIRHRPPRLPRPRPRPNTYPRP,-0.742
21,RRIRLRPPRLPRPRPRPSGFPRP,-0.259

# — the supplement of paper PMC9112550, “Optimization of the antimicrobial peptide Bac7 by deep mutational scanning” (BMC Biology, 2022)
